Measurements as given in patent US20100062980A1, “THERAPEUTIC USES OF BETA-ANTAGONISTS” (priority 2006, published 2010).

Tested on: Swiss albino male mice
Type: in vivo
Details: mouse, in vivo, 2.5 mg/kg
Description: Swiss albino male mice (˜20 g) were used for the in vivo toxicity study. Male Sprague-Dawley (SD) rats were used for electrocardiogram (ECG) monitoring (3-4 weeks old, ˜80-100 g) and the Langendorff isolated perfused heart experiments (8 weeks old, ˜250 g). Animals were acquired from the university Laboratory Animal Center (LAC) and were acclimatized to the Animal Holding Unit surroundings for at least 3 days prior to the experiments. Animals were kept under standard conditions with food and water available ad lib. All animal experiments were conducted according to the protocol (776/05a) approved by the Institutional Animal Care and Use Committee (IACUC) of the National University of Singapore.
The protein was dissolved in 200 μl of 0.9% NaCl (Braun, Malaysia) and administered through the intra-peritoneal (i.p.) route for the in vivo toxicity study in mice. Intra-tail vein (i.t.v.) administration was done in the ECG monitoring study in rats. The various protein doses were dissolved in 200 μl of 0.9% NaCl solution and injected into the tail vein using a 27 G ½ needle (Becton Dickinson, Franklin Lakes, N.J.) held at an angle of about 10° to the tail. […]
After purification of the protein from snake venom, i.p. doses of 1 mg/kg, 10 mg/kg and 100 mg/kg were administered to healthy male mice (three animals per group) and the symptoms were observed and recorded. […]

**Q.** Which symptoms does the source give for α-bungarotoxin [reference compound] here?
**A.** Its symptoms is “severe paralysis of the hind limbs”.
